The sequences below were run on Escherichia coli TOP10 (assay: shrunken log2 fold change of peptide-encoding DNA abundance (4.5 h post-induction vs induction); higher = less antimicrobial activity (less host growth inhibition)). Details: time post-induction: 4.5 h; library: site-saturation at positions 5, 18, 19, 20.
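Further: peptides expressed intracellularly from a pBAD plasmid library in pooled LB shake-flask culture, induced with 0.3% L-arabinose, DNA abundance read by NGS, three biological replicates, DESeq2 with apeglm shrinkage.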

Row | Sequence | shrunken log2 fold change
1 | RRIRWRPPRLPRPRPRPWSKPRP | -0.191
2 | RRIRWRPPRLPRPRPRPWSQPRP | 0.298
3 | RRIRWRPPRLPRPRPRPWTKPRP | -0.0653
4 | RRIRWRPPRLPRPRPRPWVHPRP | -0.597
5 | RRIRWRPPRLPRPRPRPWVTPRP | -0.37
6 | RRIRWRPPRLPRPRPRPWYDPRP | -0.31
7 | RRIRWRPPRLPRPRPRPYCQPRP | -0.694
8 | RRIRWRPPRLPRPRPRPYDYPRP | -0.262
9 | RRIRWRPPRLPRPRPRPYECPRP | -0.148
10 | RRIRWRPPRLPRPRPRPYEQPRP | -0.398
11 | RRIRWRPPRLPRPRPRPYFHPRP | -0.625
12 | RRIRWRPPRLPRPRPRPYFMPRP | -0.834
13 | RRIRWRPPRLPRPRPRPYFPPRP | -0.282
14 | RRIRWRPPRLPRPRPRPYFQPRP | 1.83
15 | RRIRWRPPRLPRPRPRPYGAPRP | -0.0532
16 | RRIRWRPPRLPRPRPRPYGFPRP | -0.00325
17 | RRIRWRPPRLPRPRPRPYHSPRP | -0.215
18 | RRIRWRPPRLPRPRPRPYKCPRP | 0.0561
19 | RRIRWRPPRLPRPRPRPYKHPRP | -1.24
20 | RRIRWRPPRLPRPRPRPYLQPRP | -0.113
21 | RRIRWRPPRLPRPRPRPYMAPRP | -0.247
22 | RRIRWRPPRLPRPRPRPYMKPRP | -0.459

Row | Sequence | shrunken log2 fold change
23 | RRIRWRPPRLPRPRPRPYPGPRP | -0.0967
24 | RRIRWRPPRLPRPRPRPYPHPRP | -0.184
25 | RRIRWRPPRLPRPRPRPYSFPRP | -0.107
26 | RRIRWRPPRLPRPRPRPYTAPRP | -0.611
27 | RRIRWRPPRLPRPRPRPYTEPRP | -0.118
28 | RRIRWRPPRLPRPRPRPYTVPRP | -0.29
29 | RRIRWRPPRLPRPRPRPYVAPRP | -0.492
30 | RRIRWRPPRLPRPRPRPYWHPRP | -0.377
31 | RRIRWRPPRLPRPRPRPYYHPRP | -0.306
32 | RRIRWRPPRLPRPRPRPYYIPRP | -0.459
33 | RRIRWRPPRLPRPRPRPYYYPRP | -0.473
34 | RRIRYRPPRLPRPRPRPAASPRP | -0.0616
35 | RRIRYRPPRLPRPRPRPAAWPRP | 0.00758
36 | RRIRYRPPRLPRPRPRPACGPRP | -0.145
37 | RRIRYRPPRLPRPRPRPACPPRP | -0.0352
38 | RRIRYRPPRLPRPRPRPADHPRP | -0.0872
39 | RRIRYRPPRLPRPRPRPADQPRP | -0.0819
40 | RRIRYRPPRLPRPRPRPAGDPRP | -0.232
41 | RRIRYRPPRLPRPRPRPAGSPRP | 0.0105
42 | RRIRYRPPRLPRPRPRPAKKPRP | 0.0499
43 | RRIRYRPPRLPRPRPRPAKLPRP | -0.194
44 | RRIRYRPPRLPRPRPRPAKMPRP | -0.329

Row | Sequence | shrunken log2 fold change
45 | RRIRYRPPRLPRPRPRPAMAPRP | 0.0187
46 | RRIRYRPPRLPRPRPRPAPFPRP | -0.11
47 | RRIRYRPPRLPRPRPRPAPLPRP | -0.0323
48 | RRIRYRPPRLPRPRPRPAPSPRP | -0.0165
49 | RRIRYRPPRLPRPRPRPARSPRP | 0.134
50 | RRIRYRPPRLPRPRPRPATVPRP | -0.042
51 | RRIRYRPPRLPRPRPRPAVIPRP | -0.0517
52 | RRIRYRPPRLPRPRPRPAWHPRP | -0.249
53 | RRIRYRPPRLPRPRPRPAWLPRP | -0.0755
54 | RRIRYRPPRLPRPRPRPAYGPRP | 3.33
55 | RRIRYRPPRLPRPRPRPAYHPRP | -0.321
56 | RRIRYRPPRLPRPRPRPAYIPRP | -0.00172
57 | RRIRYRPPRLPRPRPRPAYRPRP | -0.0312
58 | RRIRYRPPRLPRPRPRPAYWPRP | -0.029
59 | RRIRYRPPRLPRPRPRPCAAPRP | -0.642
60 | RRIRYRPPRLPRPRPRPCAKPRP | -0.374
61 | RRIRYRPPRLPRPRPRPCANPRP | -0.0013
62 | RRIRYRPPRLPRPRPRPCEDPRP | -0.371
63 | RRIRYRPPRLPRPRPRPCEEPRP | -0.156
64 | RRIRYRPPRLPRPRPRPCGFPRP | -0.241
65 | RRIRYRPPRLPRPRPRPCGLPRP | -0.107
66 | RRIRYRPPRLPRPRPRPCHQPRP | -0.00822

Row | Sequence | shrunken log2 fold change
67 | RRIRYRPPRLPRPRPRPCHTPRP | -0.141
68 | RRIRYRPPRLPRPRPRPCIAPRP | -0.148
69 | RRIRYRPPRLPRPRPRPCINPRP | -0.00114
70 | RRIRYRPPRLPRPRPRPCIVPRP | -0.246
71 | RRIRYRPPRLPRPRPRPCIWPRP | -0.176
72 | RRIRYRPPRLPRPRPRPCLSPRP | -1.24
73 | RRIRYRPPRLPRPRPRPCLWPRP | -0.481
74 | RRIRYRPPRLPRPRPRPCPEPRP | -0.421
75 | RRIRYRPPRLPRPRPRPCSDPRP | -0.187
76 | RRIRYRPPRLPRPRPRPCSGPRP | -0.0198
77 | RRIRYRPPRLPRPRPRPCTHPRP | -1.23
78 | RRIRYRPPRLPRPRPRPCWAPRP | -0.434
79 | RRIRYRPPRLPRPRPRPCYDPRP | -0.379
80 | RRIRYRPPRLPRPRPRPDAFPRP | -1.27
81 | RRIRYRPPRLPRPRPRPDAGPRP | -0.492
82 | RRIRYRPPRLPRPRPRPDAVPRP | -0.365
83 | RRIRYRPPRLPRPRPRPDELPRP | 0.0702
84 | RRIRYRPPRLPRPRPRPDHTPRP | -0.11
85 | RRIRYRPPRLPRPRPRPDIFPRP | -0.032
86 | RRIRYRPPRLPRPRPRPDIYPRP | 0.0393
87 | RRIRYRPPRLPRPRPRPDKDPRP | -0.151
88 | RRIRYRPPRLPRPRPRPDKQPRP | 0.0233

Row | Sequence | shrunken log2 fold change
89 | RRIRYRPPRLPRPRPRPDLRPRP | -1.03
90 | RRIRYRPPRLPRPRPRPDLSPRP | -0.025
91 | RRIRYRPPRLPRPRPRPDMRPRP | -0.00508
92 | RRIRYRPPRLPRPRPRPDNEPRP | -0.258
93 | RRIRYRPPRLPRPRPRPDNKPRP | -0.609
94 | RRIRYRPPRLPRPRPRPDNLPRP | -0.196
95 | RRIRYRPPRLPRPRPRPDNYPRP | -0.175
96 | RRIRYRPPRLPRPRPRPDPRPRP | -0.0317
97 | RRIRYRPPRLPRPRPRPDQNPRP | -0.269
98 | RRIRYRPPRLPRPRPRPDQRPRP | -0.24
99 | RRIRYRPPRLPRPRPRPDRGPRP | -0.213
100 | RRIRYRPPRLPRPRPRPDRHPRP | -0.189
101 | RRIRYRPPRLPRPRPRPDRSPRP | 0.00326
102 | RRIRYRPPRLPRPRPRPDSWPRP | -0.602
103 | RRIRYRPPRLPRPRPRPDTQPRP | -0.00672
104 | RRIRYRPPRLPRPRPRPDVCPRP | -0.124
105 | RRIRYRPPRLPRPRPRPDVDPRP | -0.0562
106 | RRIRYRPPRLPRPRPRPDYWPRP | -0.134
107 | RRIRYRPPRLPRPRPRPEACPRP | -0.0328
108 | RRIRYRPPRLPRPRPRPEAHPRP | -0.281
109 | RRIRYRPPRLPRPRPRPEATPRP | 0.28

From the supplement of paper PMC9112550, “Optimization of the antimicrobial peptide Bac7 by deep mutational scanning” (BMC Biology, 2022)
